Laboratory results published in patent publication US20180021429A1, “ANTICANCER AGENTS OR ANTIMETASTATIC AGENTS USING FSTL1 AND COMBINATION DRUG THEREOF” (PHARMA FOODS INTERNATIONAL CO., LTD., priority 2015, published 2018).

How the values were obtained:
[1] = test system: induction of mesenchymal stem cells (MSCs) by FSTL1; assay: Inhibitory activity against induction of MSC by FSTL1, CD45-negative cells (Examples 6, 8, 12); type: cell-based, mouse; conditions: Example 8, FIG. 6A/36A; FSTL1 20 ng/mL; antibody 10 μg/mL; 8 days
Method: (§1) Mouse bone marrow cells prepared in the same way as in Example 4 were supplemented with 50 ng/mL (final concentration) of FSTL1 and 10 μg/mL of the anti-FSTL1 antibody (#5-2, #5-3, #5-8, #5-10, 45-43, #6-55, or #7-34) or a control antibody anti-DNP antibody and cultured under stimulation. 11 days thereafter, the number of cells was counted while the cells were stained with a PE-Cy5-labeled anti-CD45 antibody (BD Pharmingen/Becton, Dickinson and Company, Cat. No. 555484), and the content of CD45-negative cells reported to generally contain MSCs at a high rate was analyzed by flow cytometry using FACScan to calculate the percentage and number of MSCs per culture (FIG. 5A).
(§2) Mouse bone marrow cells prepared in the same way as in Example 4 were supplemented with 20 ng/mL (final concentration) of FSTL1 and 10 μg/mL of the anti-FSTL1 antibody (#5-2, #5-3, #5-8, #5-10, #5-43, #6-55, #8-1, #8-4, #8-7, and #8-8) or a control antibody anti-DNP antibody and cultured under stimulation. 8 days thereafter, the number of cells was counted while the cells were stained with a PE-Cy5-labeled anti-CD45 antibody, and the content of CD45-negative cells was analyzed by flow cytometry using FACScan to calculate the percentage and number of MSCs per culture (FIG. 6A).
as §2, with “(#5-2,” for “(#5-2, #5-3,”, “#5-8,” for “#5-8, #5-10, #5-43,”, “#6-55, #7-34,” for “#6-55,”, “#8-7, or” for “#8-7, and”, “(FIG. 7).” for “(FIG. 6A).”
as §1, with “35A).” for “5A).”
as §2, with “36A).” for “6A).”
as §2, with “(#5-2,” for “(#5-2, #5-3,”, “#5-8,” for “#5-8, #5-10, #5-43,”, “#6-55, #7-34,” for “#6-55,”, “#8-7, or” for “#8-7, and”, “(FIG. 37).” for “(FIG. 6A).”

FSTL1 = biological target: T1, FSTL1 (Homo sapiens, UniProt Q12841); assay: Inhibition of MSC induction by FSTL1 in mouse bone marrow cells, CD45-negative cells (Examples 6, 8, 12); type: cell-based; set-up: purchased R&D Systems, Inc. 1694-FN-050; conditions: Example 8; FSTL1 20 ng/mL, antibody 10 μg/mL, 8 days
T1 sequence (Q12841 21-308): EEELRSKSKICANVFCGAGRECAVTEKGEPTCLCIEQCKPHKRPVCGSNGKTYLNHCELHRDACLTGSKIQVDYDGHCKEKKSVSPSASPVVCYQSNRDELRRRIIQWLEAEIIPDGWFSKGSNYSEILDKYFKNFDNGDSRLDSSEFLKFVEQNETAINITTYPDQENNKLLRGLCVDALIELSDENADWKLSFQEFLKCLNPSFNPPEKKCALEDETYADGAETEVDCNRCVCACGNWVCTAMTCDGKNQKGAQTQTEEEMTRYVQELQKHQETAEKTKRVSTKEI
Method: as §1, with “CD45− negative” for “CD45-negative”, “67A).” for “5A).”
as §2, with “CD45− negative” for “CD45-negative”, “68A).” for “6A).”
as §2, with “(#5-2,” for “(#5-2, #5-3,”, “#5-8,” for “#5-8, #5-10, #5-43,”, “#6-55, #7-34,” for “#6-55,”, “#8-7, or” for “#8-7, and”, “of CD45− negative” for “of CD45-negative”, “(FIG. 69).” for “(FIG. 6A).”

B1: #8-8: chicken-mouse chimeric anti-FSTL1 antibody clone; variable regions SEQ ID NO: 803 (light), 805 (heavy) (antibody, V domains shown)
VH: AVTLDESGGGLQTPGGALSLVCKGSGFTFSSFNMFWVRQAPGKGLEWVAGIGKDGVPKYGAAVDGRATISKDNGQSTMRLQLNNLRAEDTGTYYCAKAAGGCSYGWCGAYTGDIDTWGHGTEVIVSS
VL: ASTQPSSVSANPGEAVKITCSGGSGSYYGWYQQKSPGSAPVTVIYNNNQRPSDIPSRFSGSKSGSTATLTITGVQVEDEAVYFCGGYDSSTGHGGIFGAGTTLTVL
modifications: mouse constant regions
[1]
  inhibitory activity against the expansion of CD45-negative cells by FSTL1: Inhibitory activity was confirmed
FSTL1
  inhibitory activity against the expansion of CD45-negative cells by FSTL1: Inhibitory activity was confirmed
